± gives the uncertainty stated by the source.

B1: POU domain, class 3, transcription factor 3, residues 408 to 463; numbered along this chain, P20264 (parent)
chain: KKRTSIEVSVKGALESHFLKCPKPSAQEITNLADSLQLEKEVVRVWFCNRRQKEKR

The series covers variants of B1. Description: abundance fitness (aPCA) (normalised: wild type 0, dead -1); higher = more abundant; growth selection in yeast, the domain comes from the species named. Particulars: Homo sapiens.
Take KKRTSIEVSVKGALESHFLKCPKPSAQEITNLADSLGLEKEVVRVWFCNRRQKEKR [Q37G]: the abundance fitness came out at 0.013 ± 0.059. In the case of KKRTSIEVSVKGALESHFLKCPKPSAQEITNLADSLNLEKEVVRVWFCNRRQKEKR [Q37N] it was -0.037 ± 0.13. In the case of KKRTSIEVSVKGALESHFLKCPKPSAQEITNLADSLFLEKEVVRVWFCNRRQKEKR [Q37F] it was -0.3 ± 0.16; in that of KKRTSIEVSVKGALESHFLKCPKPSAQEITNLADSLLLEKEVVRVWFCNRRQKEKR [Q37L], -0.188 ± 0.063.

KKRTSIEVSVKGALESHFLKCPKPSAQEITNLADSLALEKEVVRVWFCNRRQKEKR [Q37A]: the abundance fitness worked out at 0.013 ± 0.063.

Regarding KKRTSIEVSVKGALESHFLKCPKPSAQEITNLADSLDLEKEVVRVWFCNRRQKEKR [Q37D], the abundance fitness was found to be 0 ± 0.11.

For KKRTSIEVSVKGALESHFLKCPKPSAQEITNLADSLWLEKEVVRVWFCNRRQKEKR [Q37W], the abundance fitness is -0.374 ± 0.092. To KKRTSIEVSVKGALESHFLKCPKPSAQEITNLADSLYLEKEVVRVWFCNRRQKEKR [Q37Y] belongs -0.342 ± 0.16. To KKRTSIEVSVKGALESHFLKCPKPSAQEITNLADSLELEKEVVRVWFCNRRQKEKR [Q37E] belongs -0.042 ± 0.097; to KKRTSIEVSVKGALESHFLKCPKPSAQEITNLADSLTLEKEVVRVWFCNRRQKEKR [Q37T], -0.257 ± 0.093; to KKRTSIEVSVKGALESHFLKCPKPSAQEITNLADSLPLEKEVVRVWFCNRRQKEKR [Q37P], -0.671 ± 0.13. In the case of KKRTSIEVSVKGALESHFLKCPKPSAQEITNLADSLSLEKEVVRVWFCNRRQKEKR [Q37S] it was -0.054 ± 0.068; in that of KKRTSIEVSVKGALESHFLKCPKPSAQEITNLADSLHLEKEVVRVWFCNRRQKEKR [Q37H], -0.034 ± 0.14; in that of KKRTSIEVSVKGALESHFLKCPKPSAQEITNLADSLCLEKEVVRVWFCNRRQKEKR [Q37C], -0.156 ± 0.11.

For the variant KKRTSIEVSVKGALESHFLKCPKPSAQEITNLADSLRLEKEVVRVWFCNRRQKEKR [Q37R], the abundance fitness is -0.072 ± 0.06. On to KKRTSIEVSVKGALESHFLKCPKPSAQEITNLADSLILEKEVVRVWFCNRRQKEKR [Q37I], for which the abundance fitness was -0.453 ± 0.13. In the case of KKRTSIEVSVKGALESHFLKCPKPSAQEITNLADSVQLEKEVVRVWFCNRRQKEKR [L36V] it was -0.522 ± 0.07. In the case of KKRTSIEVSVKGALESHFLKCPKPSAQEITNLADSYQLEKEVVRVWFCNRRQKEKR [L36Y] it was -0.313 ± 0.11; in that of KKRTSIEVSVKGALESHFLKCPKPSAQEITNLADSQQLEKEVVRVWFCNRRQKEKR [L36Q], -0.812 ± 0.13; in that of KKRTSIEVSVKGALESHFLKCPKPSAQEITNLADSWQLEKEVVRVWFCNRRQKEKR [L36W], -0.565 ± 0.1. As for KKRTSIEVSVKGALESHFLKCPKPSAQEITNLADSSQLEKEVVRVWFCNRRQKEKR [L36S], the abundance fitness is -0.866 ± 0.12. For the variant KKRTSIEVSVKGALESHFLKCPKPSAQEITNLADSHQLEKEVVRVWFCNRRQKEKR [L36H], the abundance fitness is -0.434 ± 0.12. To KKRTSIEVSVKGALESHFLKCPKPSAQEITNLADSMQLEKEVVRVWFCNRRQKEKR [L36M] belongs -0.166 ± 0.098; to KKRTSIEVSVKGALESHFLKCPKPSAQEITNLADSRQLEKEVVRVWFCNRRQKEKR [L36R], -0.955 ± 0.081; to KKRTSIEVSVKGALESHFLKCPKPSAQEITNLADSNQLEKEVVRVWFCNRRQKEKR [L36N], -0.869 ± 0.19. On to KKRTSIEVSVKGALESHFLKCPKPSAQEITNLADSAQLEKEVVRVWFCNRRQKEKR [L36A], for which the abundance fitness was -0.906 ± 0.092. For the variant KKRTSIEVSVKGALESHFLKCPKPSAQEITNLADSFQLEKEVVRVWFCNRRQKEKR [L36F], the abundance fitness was -0.177 ± 0.11. In the case of KKRTSIEVSVKGALESHFLKCPKPSAQEITNLADSCQLEKEVVRVWFCNRRQKEKR [L36C], the abundance fitness was -0.517 ± 0.15. To KKRTSIEVSVKGALESHFLKCPKPSAQEITNLADSPQLEKEVVRVWFCNRRQKEKR [L36P] belongs -1.03 ± 0.18. To KKRTSIEVSVKGALESHFLKCPKPSAQEITNLADSIQLEKEVVRVWFCNRRQKEKR [L36I] belongs -0.377 ± 0.11; to KKRTSIEVSVKGALESHFLKCPKPSAQEITNLADSDQLEKEVVRVWFCNRRQKEKR [L36D], -1.02 ± 0.16; to KKRTSIEVSVKGALESHFLKCPKPSAQEITNLADSGQLEKEVVRVWFCNRRQKEKR [L36G], -0.929 ± 0.079. With KKRTSIEVSVKGALESHFLKCPKPSAQEITNLADSLQLAKEVVRVWFCNRRQKEKR [E39A], the abundance fitness is -0.153 ± 0.069. To KKRTSIEVSVKGALESHFLKCPKPSAQEITNLADSLQQEKEVVRVWFCNRRQKEKR [L38Q] belongs -0.605 ± 0.11; to KKRTSIEVSVKGALESHFLKCPKPSAQEITNLADSLQIEKEVVRVWFCNRRQKEKR [L38I], -0.048 ± 0.16. To KKRTSIEVSVKGALESHFLKCPKPSAQEITNLADSLQSEKEVVRVWFCNRRQKEKR [L38S] belongs -0.699 ± 0.078.

Consider KKRTSIEVSVKGALESHFLKCPKPSAQEITNLADSLQHEKEVVRVWFCNRRQKEKR [L38H], for which the abundance fitness is -0.735 ± 0.16. To KKRTSIEVSVKGALESHFLKCPKPSAQEITNLADSLQPEKEVVRVWFCNRRQKEKR [L38P] belongs -0.951 ± 0.17. Regarding KKRTSIEVSVKGALESHFLKCPKPSAQEITNLADSLQAEKEVVRVWFCNRRQKEKR [L38A], the abundance fitness was -0.693 ± 0.074. In the case of KKRTSIEVSVKGALESHFLKCPKPSAQEITNLADSLQGEKEVVRVWFCNRRQKEKR [L38G] it was -0.943 ± 0.076; in that of KKRTSIEVSVKGALESHFLKCPKPSAQEITNLADSLQYEKEVVRVWFCNRRQKEKR [L38Y], -0.982 ± 0.2; in that of KKRTSIEVSVKGALESHFLKCPKPSAQEITNLADSLQMEKEVVRVWFCNRRQKEKR [L38M], -0.13 ± 0.095. Turning to KKRTSIEVSVKGALESHFLKCPKPSAQEITNLADSLQFEKEVVRVWFCNRRQKEKR [L38F], the abundance fitness is -0.91 ± 0.18. In the case of KKRTSIEVSVKGALESHFLKCPKPSAQEITNLADSLQREKEVVRVWFCNRRQKEKR [L38R] it was -0.889 ± 0.08; in that of KKRTSIEVSVKGALESHFLKCPKPSAQEITNLADSLQCEKEVVRVWFCNRRQKEKR [L38C], -0.387 ± 0.09; in that of KKRTSIEVSVKGALESHFLKCPKPSAQEITNLADSLQTEKEVVRVWFCNRRQKEKR [L38T], -0.18 ± 0.087. On to KKRTSIEVSVKGALESHFLKCPKPSAQEITNLADSLQKEKEVVRVWFCNRRQKEKR [L38K], for which the abundance fitness is -0.895 ± 0.14.
